In publication PMC6391532:

Legend:
Assay in all cases: SEC
[1] = molecular target: DENV2C L81N (dengue virus 2)
[2] = molecular target: DENV2C I88N (dengue virus 2)
[3] = molecular target: DENV2C L54S (dengue virus 2)
[4] = molecular target: DENV2C L50S (dengue virus 2)
[5] = molecular target: dengue virus 2 capsid protein (DENV2C), wild type (dengue virus 2)

Substance: DENV2C L81N (natural protein)
- stoichiometry N [1]: 2

Substance: DENV2C I88N (natural protein)
- stoichiometry N [2]: 2

Substance: DENV2C L54S (natural protein)
- stoichiometry N [3]: 2

Substance: DENV2C L50S (natural protein)
- stoichiometry N [4]: 2

Substance: dengue virus 2 capsid protein (DENV2C), wild type (natural protein)
- stoichiometry N [5]: 2
